Several values for one entry are separate records, joined by “and”; a condition that tells them apart may be missing. Equal entries are not always repeated.

The results in this text go back to patent US20150104459A1.

In experiment [1] the target is M2 protein of influenza A/Hong Kong/483/97 (H5N1) (influenza A virus A/Hong Kong/483/97 (H5N1)).
Experiment [2] deals with Hemagglutinin of influenza A/Solomon Islands/3/06 (H1N1) on whole virions (Influenza A virus A/Solomon Islands/3/2006(H1N1)).
For experiment [3], the target named is Hemagglutinin of influenza A/Wisconsin/67/05 (H3N2) on whole virions (Influenza A virus A/Wisconsin/67/2005(H3N2)).
In experiment [4] the target is hemagglutinin (HA) of live influenza A/California/4/09 (H1N1) virus (influenza A virus A/California/04/2009 (H1N1)). Put plainly: cell-based or functional assay.
Experiment [5] concerns the target hemagglutinin (HA) of live influenza A/Solomon Islands/3/06 (H1N1) virus (influenza A virus A/Solomon Islands/3/2006 (H1N1)). Put plainly: cell-based or functional assay.
Experiment [6] deals with hemagglutinin (HA) of live influenza A/Wisconsin/67/05 (H3N2) virus (influenza A virus A/Wisconsin/67/2005 (H3N2)). The experiment can be described thus: cell-based or functional assay.
Experiment [7] concerns the target recombinant soluble homotrimeric HA of A/Anhui/1/05 (H5N1) (Influenza A virus A/Anhui/1/2005 (H5N1)). The experiment can be described thus: HA microarray, control mAb.
In experiment [8] the target is recombinant soluble homotrimeric HA of A/California/4/09 (H1N1) (Influenza A virus A/California/04/2009 (H1N1)). The experiment can be described thus: HA microarray, control mAb.
The target of experiment [9] is recombinant soluble homotrimeric HA of A/Egypt/3300-NAMRU3/08 (H5N1) (Influenza A virus A/Egypt/3300-NAMRU3/2008 (H5N1)). The experiment can be described thus: HA microarray, control mAb.
Experiment [10] addresses recombinant soluble homotrimeric HA of A/Hong Kong/2108/03 (H9N2) (Influenza A virus A/Hong Kong/2108/2003 (H9N2)). Put plainly: HA microarray, control mAb.
The target of experiment [11] is recombinant soluble homotrimeric HA of A/Indonesia/5/05 (H5N1) (Influenza A virus A/Indonesia/5/2005 (H5N1)). Put plainly: HA microarray, control mAb.
Experiment [12] deals with recombinant soluble homotrimeric HA of A/Japan/305/57 (H2N2) (Influenza A virus A/Japan/305/1957 (H2N2)). The experiment can be described thus: HA microarray, control mAb.
The target in experiment [13] is recombinant soluble homotrimeric HA of A/Netherlands/219/03 (H7N7) (Influenza A virus A/Netherlands/219/03 (H7N7)). The experiment can be described thus: HA microarray, control mAb.
The target in experiment [14] is recombinant soluble homotrimeric HA of A/Solomon Islands/3/06 (H1N1) (Influenza A virus A/Solomon Islands/3/2006 (H1N1)). The experiment can be described thus: HA microarray, control mAb.
Experiment [15] concerns the target recombinant soluble homotrimeric HA of A/Vietnam/1203/04 (H5N1) (Influenza A virus A/Vietnam/1203/2004 (H5N1)). The experiment can be described thus: HA microarray, control mAb.
In experiment [16] the target is recombinant soluble homotrimeric HA of A/Wisconsin/67/05 (H3N2) (Influenza A virus A/Wisconsin/67/2005 (H3N2)). The experiment can be described thus: HA microarray, control mAb.
The target of experiment [17] is recombinant soluble homotrimeric HA of A/chicken/Vietnam/NCVD-016/08 (H5N1) (Influenza A virus A/chicken/Vietnam/NCVD-016/2008 (H5N1)). Put plainly: HA microarray, control mAb.
Experiment [18] addresses recombinant soluble homotrimeric HA of A/duck/Yangzhou/02/2005 (H8N4) (Influenza A virus A/duck/Yangzhou/02/2005 (H8N4)). Put plainly: HA microarray, control mAb.
Experiment [19] has as its target recombinant soluble homotrimeric HA of A/northern shoveler/California/HKWF115/2007 (H6N1) (Influenza A virus A/northern shoveler/California/HKWF115/2007 (H6N1)). Put plainly: HA microarray, control mAb.
Experiment [20] deals with recombinant soluble homotrimeric HA of A/swine/Ontario/01911-2/99 (H4N6) (Influenza A virus A/Swine/Ontario/01911-2/99 (H4N6)). The experiment can be described thus: HA microarray, control mAb.
The target of experiment [21] is recombinant soluble homotrimeric HA, A/Hong Kong/1073/99 (H9N2) (influenza A virus A/Hong Kong/1073/99 (H9N2)). Put plainly: microarray, trimeric HA, transfection supernatant.
Experiment [22] concerns the target recombinant soluble homotrimeric HA, A/Hong Kong/156/97 (H5N1) (influenza A virus A/Hong Kong/156/97 (H5N1)). The experiment can be described thus: microarray, trimeric HA, transfection supernatant.
For experiment [23], the target named is recombinant soluble homotrimeric HA, A/Hong Kong/2108/03 (H9N2) (influenza A virus A/Hong Kong/2108/2003 (H9N2)). Put plainly: microarray, trimeric HA, transfection supernatant.
Experiment [24] addresses recombinant homotrimeric HA, A/California/4/09 H1N1 (Influenza A virus A/California/4/09 (H1N1)). The experiment can be described thus: trimeric HA microarray; transfection supernatant set 5.
The target in experiment [25] is recombinant homotrimeric HA, A/Egypt/3300-NAMRU3/08 H5N1 (Influenza A virus A/Egypt/3300-NAMRU3/08 (H5N1)). The experiment is described as above.
Experiment [26] addresses recombinant homotrimeric HA, A/Indonesia/5/05 H5N1 (Influenza A virus A/Indonesia/5/05 (H5N1)). The experiment is described as above.
Experiment [27] has as its target recombinant homotrimeric HA, A/Japan/305/57 H2N2 (Influenza A virus A/Japan/305/57 (H2N2)). The experiment is described as above.
Experiment [28] concerns the target recombinant homotrimeric HA, A/Solomon Islands/3/06 H1N1 (Influenza A virus A/Solomon Islands/3/06 (H1N1)). The experiment is described as above.
Experiment [29] concerns the target recombinant homotrimeric HA, A/South Carolina/1/18 H1N1 (Influenza A virus A/South Carolina/1/18 (H1N1)). The experiment is described as above.
Experiment [30] deals with recombinant homotrimeric HA, A/Vietnam/1203/04 H5N1 (Influenza A virus A/Vietnam/1203/04 (H5N1)). The description is as above.
Experiment [31] addresses recombinant homotrimeric HA, A/Wisconsin/67/05 H3N2 (Influenza A virus A/Wisconsin/67/05 (H3N2)). The description is as above.
In experiment [32] the target is recombinant homotrimeric HA, A/swine/Ontario/01911-2/99 H4N6 (Influenza A virus A/swine/Ontario/01911-2/99 (H4N6)). The experiment is described as above.
Experiment [33] has as its target M2 protein of influenza A/Puerto Rico/8/34 (H1N1), on virus particles (influenza A virus A/Puerto Rico/8/34 (H1N1)) (UniProt P06821).
For FACS M2-HK MFI in this document: test concentration or dose not given here.
For OD450 in this document: test concentration or dose not given here.
For Virus ELISA OD A450 in this document: test concentration or dose not given here.

Chain of TCN-032 (8I10) (antibody) (VH): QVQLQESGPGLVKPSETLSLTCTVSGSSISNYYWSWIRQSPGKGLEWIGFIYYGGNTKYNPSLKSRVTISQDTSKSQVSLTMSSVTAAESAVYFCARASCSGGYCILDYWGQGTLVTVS
Chain of TCN-032 (8I10) (antibody) (VL): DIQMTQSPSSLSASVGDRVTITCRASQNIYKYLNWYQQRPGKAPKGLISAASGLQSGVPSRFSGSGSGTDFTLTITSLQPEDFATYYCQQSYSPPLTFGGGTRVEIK

For TCN-032 (8I10) (antibody), in experiment [1], the FACS M2-HK MFI is 754 MFI and 1080 MFI.
On to TCN-202 (2N9) (antibody), for which the OD450 in [2] was 0.07 OD450 and 0.08 OD450 and 0.1 OD450; in [3], 0.07 OD450 and 0.08 OD450. Also, the % Neutralization was 0% in [4]; 0% and 7% in experiment [5]; 17.8% and 0% in experiment [6]. Besides, the Trimeric HA Binding RLU in experiment [7] was determined as 25 RLU; in [8], 39 RLU; in experiment [9], 1280 RLU; in [10], 50 RLU; in experiment [11] it was 24 RLU; in experiment [12], 85 RLU. For the same substance, the Trimeric HA Binding RLU is 348 RLU in experiment [13]; 46 RLU in experiment [14]; 53 RLU in [15]; 252 RLU in experiment [16]; 69 RLU in experiment [17]; 196 RLU in experiment [18]. Also, the Trimeric HA Binding RLU was 105 RLU in experiment [19]; 75 RLU in experiment [20]; 57 RLU and 81 RLU in experiment [21]; 945 RLU in [22]; 30 RLU and 22 RLU in experiment [23]. For the same substance, the Trimeric HA Binding: RLU came to 733 RLU in [24]; 13900 RLU in experiment [25]; 1970 RLU in experiment [26]; 1880 RLU in experiment [27]; 525 RLU in experiment [28]; 5330 RLU in [29]. For the same substance, the Trimeric HA Binding: RLU in [30] came out at 30000 RLU; in [31], 581 RLU; in experiment [32] it was 2690 RLU.
mAb 2N9 (antibody): in experiment [1], the FACS M2-HK MFI is 11 MFI and 6 MFI. Also, the Virus ELISA OD A450 in [33] is 0.15 OD A450 and 0.05 OD A450.
